Our source for the staining activity, HI activity and Neutralization activity (% inhibition) values is patent US20110319600A1.

Where only a bound is given, the exact number is not on record here.

Assay [1] addresses hemagglutinin (HA) of human influenza B virus, B/Malaysia/2506/04 strain (human influenza B virus, B/Malaysia/2506/04 strain).
The target of assay [2] is hemagglutinin (HA) of human influenza B virus, B/Mie/1/93 strain (human influenza B virus, B/Mie/1/93 strain).
Assay [3] deals with hemagglutinin (HA) of human influenza B virus, B/Shanghai/261/02 strain (human influenza B virus, B/Shanghai/261/02 strain).
The target of assay [4] is hemagglutinin (HA) of human influenza B virus, B/Victoria/2/87 strain (human influenza B virus, B/Victoria/2/87 strain).
hemagglutinin (HA) of human influenza B virus, B/Victoria/2/87 strain (human influenza B virus, B/Victoria/2/87 strain), sequence (P22092 16-585): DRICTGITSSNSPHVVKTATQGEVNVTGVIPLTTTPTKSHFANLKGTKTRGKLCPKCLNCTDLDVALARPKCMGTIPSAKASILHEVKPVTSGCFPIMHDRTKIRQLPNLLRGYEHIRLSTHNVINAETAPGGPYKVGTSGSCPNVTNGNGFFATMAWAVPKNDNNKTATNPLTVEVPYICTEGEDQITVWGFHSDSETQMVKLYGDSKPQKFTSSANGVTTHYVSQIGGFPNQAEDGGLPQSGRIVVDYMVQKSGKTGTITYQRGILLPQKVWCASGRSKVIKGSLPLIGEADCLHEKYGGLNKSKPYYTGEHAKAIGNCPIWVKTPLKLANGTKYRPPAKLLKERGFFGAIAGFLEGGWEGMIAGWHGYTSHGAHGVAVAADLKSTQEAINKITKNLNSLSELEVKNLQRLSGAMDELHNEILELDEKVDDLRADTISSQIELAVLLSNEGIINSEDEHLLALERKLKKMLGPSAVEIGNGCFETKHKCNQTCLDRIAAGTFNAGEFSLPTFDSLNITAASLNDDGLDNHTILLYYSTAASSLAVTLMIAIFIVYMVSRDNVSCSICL
The target in assay [5] is hemagglutinin (HA) of human influenza B virus, B/Malaysia/2506/04 strain (human influenza B virus, B/Malaysia/2506/04 strain). Description: cell-based or functional assay.

B1: B-3 monoclonal antibody (antibody, V domains shown)
VH: QVKLVQSGGGAVQPGRSLRLSCEASGFDFTVYDIHWVRQAPGKGLEWVASIWHNGGKAYYADSVKGRFTVSRDNPQKTVYLQMSGLRPEDTATYYCAREFPFMGIYDYGMDAWGQGTTVTVAS
VL: QSVLAQPPSASGTPGQRVIISCSGTSSNIGGNSVNWYQHPPGAAPRLLIYTTDQRPSGVPDRFSGSKSGTSASLAISGLQSEDEADYYCEVWDDSLTRPVFGGGTKLTVL
For B1, the staining activity in assay [1] came to 8; in assay [2], 32; in assay [3] it was 32; in assay [4], 32. Further, in assay [5], the HI activity is < 2. In assay [5], the Neutralization activity (% inhibition) worked out at 31.7 % inhibition.

B2: E-2 monoclonal antibody (antibody, V domains shown)
VH: QVQLQESGPGLVKPLQTLSLTCVVSGDSISRGGYYWSWVRQPPERGLEWIGDIYHSGSTNYNPALKSRTTISVETSKNQFSLQLNSVTAADTAVYYCAREPPPDYSDYKVGKGYFDYWGQGALVTVSS
VL: EIVLAQSPATLSLSPGERATLSCRASETVDTYLAWYQQKPGQAPRLLINDASKRATGIPARFSGSGSGTDFTLTISGLEPEDFAVYWCQQHSNWPPTFGQGSRLEIK
In the case of B2, the staining activity in assay [1] was 128; in assay [2] it was 128; in assay [3] it was > 128; in assay [4], > 128. Moreover, the HI activity in assay [5] is < 2. For the same molecule, the Neutralization activity (% inhibition) in assay [5] worked out at 37.8 % inhibition.
